# Data reported in patent US20020111475A1 (IMMUNEX, published 2002).
# Residue numbers refer to the chain shown, from its start. Names and notes keep the numbering of the source.
# T1: human flt3 on BAF/hflt3 cells (BAF-BO3 cells transfected with human flt3 cDNA) (human, UniProt P36888 27-993)
# T1 construct: whole, on cells; also called flt3 Receptor
# T1 sequence (looked up): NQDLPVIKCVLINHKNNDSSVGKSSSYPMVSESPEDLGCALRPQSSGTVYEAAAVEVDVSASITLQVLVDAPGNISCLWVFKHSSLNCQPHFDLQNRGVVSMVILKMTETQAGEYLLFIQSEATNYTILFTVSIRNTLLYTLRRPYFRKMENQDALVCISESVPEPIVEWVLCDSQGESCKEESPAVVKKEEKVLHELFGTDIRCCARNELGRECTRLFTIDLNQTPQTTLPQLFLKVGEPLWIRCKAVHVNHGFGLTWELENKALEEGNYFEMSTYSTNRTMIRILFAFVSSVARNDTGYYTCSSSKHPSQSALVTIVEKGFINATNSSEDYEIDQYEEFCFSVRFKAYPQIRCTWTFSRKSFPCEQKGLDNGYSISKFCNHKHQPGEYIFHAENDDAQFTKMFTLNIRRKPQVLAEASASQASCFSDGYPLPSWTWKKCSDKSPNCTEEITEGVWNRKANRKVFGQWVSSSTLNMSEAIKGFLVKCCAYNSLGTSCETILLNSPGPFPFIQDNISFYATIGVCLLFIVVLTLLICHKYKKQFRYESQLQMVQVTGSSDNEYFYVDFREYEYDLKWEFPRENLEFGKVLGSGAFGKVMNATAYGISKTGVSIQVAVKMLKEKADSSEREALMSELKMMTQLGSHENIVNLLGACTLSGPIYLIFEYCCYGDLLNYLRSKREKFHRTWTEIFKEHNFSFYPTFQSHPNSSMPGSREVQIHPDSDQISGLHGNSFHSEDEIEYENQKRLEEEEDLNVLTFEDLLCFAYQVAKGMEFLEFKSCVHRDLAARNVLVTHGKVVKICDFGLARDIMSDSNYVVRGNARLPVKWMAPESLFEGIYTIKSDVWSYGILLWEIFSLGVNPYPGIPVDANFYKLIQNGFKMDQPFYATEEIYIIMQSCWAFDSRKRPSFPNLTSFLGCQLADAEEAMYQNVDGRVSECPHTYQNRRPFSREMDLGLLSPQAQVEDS
# T2: flt3 on murine WWF7 cells
# T2 sequence (Q00342 whole entry, looked up): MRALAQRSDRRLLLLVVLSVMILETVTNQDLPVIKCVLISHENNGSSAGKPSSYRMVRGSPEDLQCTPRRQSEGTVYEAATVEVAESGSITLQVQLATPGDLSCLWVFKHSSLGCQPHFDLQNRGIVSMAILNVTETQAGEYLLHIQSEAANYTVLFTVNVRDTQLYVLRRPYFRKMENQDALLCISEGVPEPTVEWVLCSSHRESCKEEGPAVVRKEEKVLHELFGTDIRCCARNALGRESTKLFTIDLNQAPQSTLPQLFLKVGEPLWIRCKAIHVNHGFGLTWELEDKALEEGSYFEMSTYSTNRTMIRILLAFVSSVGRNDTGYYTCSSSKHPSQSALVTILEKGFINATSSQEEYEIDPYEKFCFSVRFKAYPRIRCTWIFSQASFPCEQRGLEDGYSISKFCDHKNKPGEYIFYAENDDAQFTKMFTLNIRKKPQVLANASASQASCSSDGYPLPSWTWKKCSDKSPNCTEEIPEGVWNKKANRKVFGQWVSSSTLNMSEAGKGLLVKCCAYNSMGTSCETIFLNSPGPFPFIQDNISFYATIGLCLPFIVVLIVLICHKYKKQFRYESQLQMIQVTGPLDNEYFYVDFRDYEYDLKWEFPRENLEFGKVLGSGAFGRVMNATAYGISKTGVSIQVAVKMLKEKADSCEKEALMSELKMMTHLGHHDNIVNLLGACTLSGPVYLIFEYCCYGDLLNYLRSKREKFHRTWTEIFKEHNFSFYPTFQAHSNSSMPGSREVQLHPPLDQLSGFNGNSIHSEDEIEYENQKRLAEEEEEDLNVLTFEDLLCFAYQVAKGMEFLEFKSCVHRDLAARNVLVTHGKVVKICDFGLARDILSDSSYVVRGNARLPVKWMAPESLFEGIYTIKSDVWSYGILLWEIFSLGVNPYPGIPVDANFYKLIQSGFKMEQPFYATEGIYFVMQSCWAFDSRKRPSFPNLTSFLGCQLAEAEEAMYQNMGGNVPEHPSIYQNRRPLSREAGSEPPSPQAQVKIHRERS
# B1: flt3-L multiple mutant K84E/Q122R (ligand)
# chain: LSGTQDCSFQHSPISSDFAVKIRELSDYLLQDYPVTVASNLQDEELCGGLWRLVLAQRWMERLKTVAGSKMQGLLERVNTEIHFVTECAFQPPPSCLRFVQTNISRLLQETSEQLVALKPWITRRNFARCLELQCQPDSSTLPPPWSPRPLEATAP
# notes: also called double mutant K84E/Q122R
# B2: flt3-L mutant H8Y (ligand)
# chain: B1 chain with H11Y, E87K, R125Q
# notes: yeast supernatant and purified protein (dimer)
# B3: flt3-L quadruply substituted mutant L-3H/H8Y/K84E/Q122R (ligand)
# chain: B1 chain with L1H, H11Y
# notes: Constructed by PCR mutagenesis from K84E/Q122R, expressed in yeast and purified
# B4: flt3-L mutant F15L (ligand)
# chain: LSGTQDCSFQHSPISSDLAVKIRELSDYLLQDYPVTVASNLQDEELCGGLWRLVLAQRWMERLKTVAGSKMQGLLERVNTEIHFVTKCAFQPPPSCLRFVQTNISRLLQETSEQLVALKPWITRQNFARCLELQCQPDSSTLPPPWSPRPLEATAPTAPQPPLLLLLLLPVGLLLLAAAWCLHWQRTRRRTPRPGEQVPPVPSPQDLLLVEH
# B5: flt3-L mutant S9G (ligand)
# chain: B4 chain with S12G, L18F
# B6: flt3-L mutant R20C (ligand)
# chain: B4 chain with L18F, R23C
# B7: flt3-L mutant S13F (ligand)
# chain: B4 chain with S16F, L18F
# B8: flt3-L mutant R55L (ligand)
# chain: B4 chain with L18F, R58L
# B9: flt3-L mutant D3G (ligand)
# chain: B4 chain with D6G, L18F
# B10: flt3-L mutant P10S (ligand)
# chain: B4 chain with P13S, L18F
# B11: flt3-L mutant F87L (ligand)
# chain: B4 chain with L18F, F90L
# B12: flt3-L mutant P90S (ligand)
# chain: B4 chain with L18F, P93S
# B13: flt3-L mutant R55C (ligand)
# chain: B4 chain with L18F, R58C
# B14: flt3-L mutant S13P (ligand)
# chain: B4 chain with S16P, L18F
# B15: flt3-L mutant R95C (ligand)
# chain: B4 chain with L18F, R98C
# B16: flt3-L mutant A64T (ligand)
# chain: B4 chain with L18F, A67T
# B17: flt3-L mutant V113E (ligand)
# chain: B4 chain with L18F, V116E
# B18: flt3-L mutant F124L (ligand)
# chain: B4 chain with L18F, F127L
# B19: flt3-L mutant V75A (ligand)
# chain: B4 chain with L18F, V78A
# B20: flt3-L mutant F124S (ligand)
# chain: B4 chain with L18F, F127S
# B21: flt3-L mutant F81L (ligand)
# chain: B4 chain with L18F, F84L
# B22: flt3-L mutant F15Y (ligand)
# chain: B4 chain with L18Y
# Molecular target: T1, human flt3 on BAF/hflt3 cells (BAF-BO3 …)
# Experiment: inhibition of 125I-flt3-L binding to BAF/hflt3 cells, purified protein
# Procedure: Binding assays were performed using a phthalate oil separation method as described previously for murine ¹²⁵I-GM-CSF (Park et al., J. Biol. Chem. 261:4177-4183 (1986)). Briefly, BAF-BO3 cells transfected with human flt3 cDNA (0.5-1×10⁶) were incubated with serial dilutions of ¹²⁵I-flt3-L in binding medium (RPMI 1640, 2.5% bovine serum albumin, 0.2% NaN3, 20 mM Hepes, pH 7.2) in 96 well microtiter plates maintained on a mini-orbital shaker (Bellco) at 37° C. for 90 minutes. Inhibition binding assays were carried out by holding the radiolabeled flt3-L concentration constant at 0.3 nM, while the concentration of unlabeled competitor proteins ranged from 150 nM to 0.001 nM. The ratio of Kdi of mutant to wild type flt3-L, determined in at least duplicate, in a given assay was averaged over at least three independent assays and the standard error of the mean (SEM) reported. […] For this assay, cells expressing human flt3 (BAF/hflt3 cells) were constructed from BAF/B03 cells, using a procedure previously described for producing BAF/B03 cells expressing the murine flt3 (Lyman et al., Cell 75:1157-1167 (1993)). Expression of human flt3 by BAF/hflt3 cells was confirmed by examining the capacity of the cells to proliferate in response to soluble flt3-L, and by flow cytometric analysis using biotinylated flt3-L.
# ^aThe specific activity of purified mutant or wild type protein was determined by taking the ratio of proliferation activity in BAF/hflt3 cells (units/ml) to concentration of flt3-L protein as determined by amino acid composition (ng/ml). The ratio of specific activity of mutant to wild type flt3-L is averaged over three independent assays, and the standard error of the mean (SEM) is reported. ^bThe Kdifor wild type protein is 61 ± 19 pM (n = 2). The ratio of Kₐᵢ of mutant to wild type flt3-L is averaged over two independent assays and the standard deviation is reported.
row,Binder,Kai MUT / Kai Wt
1,B1,3.4 ratio to wild type
2,B2,2.8 ratio to wild type
3,B3,8.6 ratio to wild type

# Molecular target: T1, human flt3 on BAF/hflt3 cells (BAF-BO3 …)
# Experiment: cell-based or functional assay
row,Binder,Sp.Ac. MUT / Sp.Ac. Wt (BAF/hflt3 cell proliferation units/ml per ng/ml purified protein)
1,B1,2.9 ratio to wild type
2,B2,2.1 ratio to wild type
3,B3,3 ratio to wild type

# Molecular target: T2, flt3 on murine WWF7 cells
# Experiment: cell-based or functional assay
row,Binder,"Sp.Ac. MUT / Sp.Ac. WT (WWF7 cell proliferation units/ml per flt3-L ng/ml by ELISA, yeast supernatant)"
1,B4,0 ratio to wild type
2,B5,0.13 ratio to wild type
3,B6,0.11 ratio to wild type
4,B7,0 ratio to wild type
5,B8,0.29 ratio to wild type
6,B9,0.81 ratio to wild type
7,B10,0 ratio to wild type
8,B11,0.01 ratio to wild type
9,B12,0.09 ratio to wild type
10,B13,0.05 ratio to wild type
11,B14,0 ratio to wild type
12,B15,0.26 ratio to wild type
13,B16,0.09 ratio to wild type
14,B17,0.8 ratio to wild type
15,B18,0.22 ratio to wild type
16,B19,0.18 ratio to wild type
17,B20,0 ratio to wild type
18,B21,0.06 ratio to wild type
19,B22,0.19 ratio to wild type
